# Patent publication US20140303084A1 (Biogen, published 2014)
# Square brackets hold non-standard residues; d marks the D form. Primed or numbered codes have the meaning given here. Ends that are not written are not given here. * marks the point of attachment. N‑PEG5kmaleimide = Cys side chain bound to N-PEG 5 kDa maleimide; Succinimide(1-Et,3-yl) = CCN1C(=O)CC(*)C1=O; PEG4(3) = not defined here; Orn = NCCC[C@H](N)C(=O)O; PEG4″ = PEG4 spacer unit; PEG5′ = not defined here; Dab = NCC[C@H](N)C(=O)O; Dap = NC[C@H](N)C(=O)O; pip = not defined here; PEG4′ = PEG4 spacer; Acm = CC(=O)NC*
# Target: human Factor IXa (human, UniProt P00740 47-191; P00740 227-461)
# Experiment: cell-based or functional assay
row,Binder,"EC50 [µM], FXa generation assay [µM]"
1,C(N‑PEG5kmaleimide)[PEG4′]SKQGRPISPD[dR]RAAGKLTCLASYCWLFWTGIA (cysteine pairing not given here) [C(N-PEG5kmaleimide)-PEG4-SKQGRPISPDrRAAGKLTCLASYCWLFWTGIA],> 1
2,C(PEG 5 kDa)GGGRRAPGKLTDLASYKWLFWTGIA (not fully specified; printed as C(PEG5k)GGG-RRAPGKLT-Asp-LASY-Lys-WLFWTGIA) [C(PEG5k)GGG-RRAPGKLT-Asp-LASY-Lys-WLFWTGIA],> 1
3,RRAPGKLTDLASY[Orn]WLFWTGIA-NH2 (N-terminus assumed; SMILES CC[C@H](C)[C@H](NC(=O)CNC(=O)[C@@H](NC(=O)[C@H](Cc1c[nH]c2ccccc12)NC(=O)[C@H](Cc1ccccc1)NC(=O)[C@H](CC(C)C)NC(=O)[C@H](Cc1c[nH]c2ccccc12)NC(=O)[C@H](CCCN)NC(=O)[C@H](Cc1ccc(O)cc1)NC(=O)[C@H](CO)NC(=O)[C@H](C)NC(=O)[C@H](CC(C)C)NC(=O)[C@H](CC(=O)O)NC(=O)[C@@H](NC(=O)[C@H](CC(C)C)NC(=O)[C@H](CCCCN)NC(=O)CNC(=O)[C@@H]1CCCN1C(=O)[C@H](C)NC(=O)[C@H](CCCNC(=N)N)NC(=O)[C@@H](N)CCCNC(=N)N)[C@@H](C)O)[C@@H](C)O)C(=O)N[C@@H](C)C(N)=O) [RRAPGKLT-Asp-LASY-Orn-WLFWTGIA-CONH2],< 0.5
4,RRAPGKLTDLASY[Dab]WLFWTGIA-NH2 (N-terminus assumed; SMILES CC[C@H](C)[C@H](NC(=O)CNC(=O)[C@@H](NC(=O)[C@H](Cc1c[nH]c2ccccc12)NC(=O)[C@H](Cc1ccccc1)NC(=O)[C@H](CC(C)C)NC(=O)[C@H](Cc1c[nH]c2ccccc12)NC(=O)[C@H](CCN)NC(=O)[C@H](Cc1ccc(O)cc1)NC(=O)[C@H](CO)NC(=O)[C@H](C)NC(=O)[C@H](CC(C)C)NC(=O)[C@H](CC(=O)O)NC(=O)[C@@H](NC(=O)[C@H](CC(C)C)NC(=O)[C@H](CCCCN)NC(=O)CNC(=O)[C@@H]1CCCN1C(=O)[C@H](C)NC(=O)[C@H](CCCNC(=N)N)NC(=O)[C@@H](N)CCCNC(=N)N)[C@@H](C)O)[C@@H](C)O)C(=O)N[C@@H](C)C(N)=O) [RRAPGKLT-Asp-LASY-Dab-WLFWTGIA-CONH2],> 10
5,RRAPGKLTKLASYEWLFWTGIA-NH2 [RRAPGKLT-Lys-LASY-Glu-WLFWTGIA-CONH2],> 1
6,RRAPGKLTKLASYDWLFWTGIA-NH2 [RRAPGKLT-Lys-LASY-Asp-WLFWTGIA-CONH2],> 1
7,SKQGRPISPDRRAAGKLTDLASY[Orn]WLFWTGIA (not fully specified; printed as SKQGRPISPDRRAAGKLT-Asp-LASY-Orn-WLFWTGIA) [SKQGRPISPDRRAAGKLT-Asp-LASY-Orn-WLFWTGIA],< 0.5
8,SKQGRPISPD[dR]RAAGKLTCLASYCWLFWTGIA[PEG4″]C(N‑PEG5k maleimide) (cysteine pairing not given here) [SKQGRPISPDrRAAGKLTCLASYCWLFWTGIA-PEG4-C(N-PEG5k maleimide)],> 5
9,RRAPGKLT[Dab]LASYDWLFWTGIA-NH2 (N-terminus assumed; SMILES CC[C@H](C)[C@H](NC(=O)CNC(=O)[C@@H](NC(=O)[C@H](Cc1c[nH]c2ccccc12)NC(=O)[C@H](Cc1ccccc1)NC(=O)[C@H](CC(C)C)NC(=O)[C@H](Cc1c[nH]c2ccccc12)NC(=O)[C@H](CC(=O)O)NC(=O)[C@H](Cc1ccc(O)cc1)NC(=O)[C@H](CO)NC(=O)[C@H](C)NC(=O)[C@H](CC(C)C)NC(=O)[C@H](CCN)NC(=O)[C@@H](NC(=O)[C@H](CC(C)C)NC(=O)[C@H](CCCCN)NC(=O)CNC(=O)[C@@H]1CCCN1C(=O)[C@H](C)NC(=O)[C@H](CCCNC(=N)N)NC(=O)[C@@H](N)CCCNC(=N)N)[C@@H](C)O)[C@@H](C)O)C(=O)N[C@@H](C)C(N)=O) [RRAPGKLT-Dab-LASY-Asp-WLFWTGIA-CONH2],> 1
10,RRAPGKLT[Dap]LASYDWLFWTGIA-OH (N-terminus assumed; SMILES CC[C@H](C)[C@H](NC(=O)CNC(=O)[C@@H](NC(=O)[C@H](Cc1c[nH]c2ccccc12)NC(=O)[C@H](Cc1ccccc1)NC(=O)[C@H](CC(C)C)NC(=O)[C@H](Cc1c[nH]c2ccccc12)NC(=O)[C@H](CC(=O)O)NC(=O)[C@H](Cc1ccc(O)cc1)NC(=O)[C@H](CO)NC(=O)[C@H](C)NC(=O)[C@H](CC(C)C)NC(=O)[C@H](CN)NC(=O)[C@@H](NC(=O)[C@H](CC(C)C)NC(=O)[C@H](CCCCN)NC(=O)CNC(=O)[C@@H]1CCCN1C(=O)[C@H](C)NC(=O)[C@H](CCCNC(=N)N)NC(=O)[C@@H](N)CCCNC(=N)N)[C@@H](C)O)[C@@H](C)O)C(=O)N[C@@H](C)C(=O)O) [RRAPGKLT-Dap-LASY-Asp-WLFWTGIA-COOH],> 10
11,RRAPGKLTDLASY[Dap]WLFWTGIA-OH (N-terminus assumed; SMILES CC[C@H](C)[C@H](NC(=O)CNC(=O)[C@@H](NC(=O)[C@H](Cc1c[nH]c2ccccc12)NC(=O)[C@H](Cc1ccccc1)NC(=O)[C@H](CC(C)C)NC(=O)[C@H](Cc1c[nH]c2ccccc12)NC(=O)[C@H](CN)NC(=O)[C@H](Cc1ccc(O)cc1)NC(=O)[C@H](CO)NC(=O)[C@H](C)NC(=O)[C@H](CC(C)C)NC(=O)[C@H](CC(=O)O)NC(=O)[C@@H](NC(=O)[C@H](CC(C)C)NC(=O)[C@H](CCCCN)NC(=O)CNC(=O)[C@@H]1CCCN1C(=O)[C@H](C)NC(=O)[C@H](CCCNC(=N)N)NC(=O)[C@@H](N)CCCNC(=N)N)[C@@H](C)O)[C@@H](C)O)C(=O)N[C@@H](C)C(=O)O) [RRAPGKLT-Asp-LASY-Dap-WLFWTGIA-COOH],> 1
12,RRAPGKLTDLASY[Dap]WLFWTGIA-NH2 (N-terminus assumed; SMILES CC[C@H](C)[C@H](NC(=O)CNC(=O)[C@@H](NC(=O)[C@H](Cc1c[nH]c2ccccc12)NC(=O)[C@H](Cc1ccccc1)NC(=O)[C@H](CC(C)C)NC(=O)[C@H](Cc1c[nH]c2ccccc12)NC(=O)[C@H](CN)NC(=O)[C@H](Cc1ccc(O)cc1)NC(=O)[C@H](CO)NC(=O)[C@H](C)NC(=O)[C@H](CC(C)C)NC(=O)[C@H](CC(=O)O)NC(=O)[C@@H](NC(=O)[C@H](CC(C)C)NC(=O)[C@H](CCCCN)NC(=O)CNC(=O)[C@@H]1CCCN1C(=O)[C@H](C)NC(=O)[C@H](CCCNC(=N)N)NC(=O)[C@@H](N)CCCNC(=N)N)[C@@H](C)O)[C@@H](C)O)C(=O)N[C@@H](C)C(N)=O) [RRAPGKLT-Asp-LASY-Dap-WLFWTGIA-CONH2],> 1
13,CGGGLVPRGGGRRAPGKLTDLASYKWLFWTGIA [CGGGLVPRGGG-RRAPGKLT-Asp-LASY-Lys-WLFWTGIA],< 0.5
14,CGGGRRAPGKLTDLASYKWLFWTGIA [CGGG-RRAPGKLT-Asp-LASY-Lys-WLFWTGIA],< 0.5
15,C(N‑PEG5kmaleimide)[PEG4′]LVPR[PEG4′][dR]RAPGKLTCLASYCWLFWTGIA (cysteine pairing not given here) [C(N-PEG5kmaleimide)-PEG4-LVPR-PEG4-rRAPGKLTCLASYCWLFWTGIA],> 1
16,C(Acm)GGGG[dF][pip]R[PEG5′][dR]RAPGKLTCLASYCWLFWTGIA (cysteine pairing not given here; reading uncertain; also: printed as C(Acm)GGGGfpipR-PEG5-rRAPGKLTCLASYCWLFWTGIA) [C(Acm)GGGGfpipR-PEG5-rRAPGKLTCLASYCWLFWTGIA],> 1
17,"C(Succinimide(1-Et,3-yl))[PEG4′]LVPR[PEG4′][dR]RAPGKLTCLASYCWLFWTGIA (cysteine pairing not given here) [C(N-ethylmaleimide)-PEG4-LVPR-PEG4-rRAPGKLTCLASYCWLFWTGIA]",> 1
18,RRAPGKLTDLASYKWLFWTGIA-NH2 [RRAPGKLT-Asp-LASY-Lys-WLFWTGIA-CONH2],< 0.5
19,RRAPGKLT[Orn]LASYDWLFWTGIA-NH2 (N-terminus assumed; SMILES CC[C@H](C)[C@H](NC(=O)CNC(=O)[C@@H](NC(=O)[C@H](Cc1c[nH]c2ccccc12)NC(=O)[C@H](Cc1ccccc1)NC(=O)[C@H](CC(C)C)NC(=O)[C@H](Cc1c[nH]c2ccccc12)NC(=O)[C@H](CC(=O)O)NC(=O)[C@H](Cc1ccc(O)cc1)NC(=O)[C@H](CO)NC(=O)[C@H](C)NC(=O)[C@H](CC(C)C)NC(=O)[C@H](CCCN)NC(=O)[C@@H](NC(=O)[C@H](CC(C)C)NC(=O)[C@H](CCCCN)NC(=O)CNC(=O)[C@@H]1CCCN1C(=O)[C@H](C)NC(=O)[C@H](CCCNC(=N)N)NC(=O)[C@@H](N)CCCNC(=N)N)[C@@H](C)O)[C@@H](C)O)C(=O)N[C@@H](C)C(N)=O) [RRAPGKLT-Orn-LASY-Asp-WLFWTGIA-CONH2],> 10
20,[dR]RAPGKLTCLASYCWLFWTGIA[PEG4(3)]C(N‑PEG5k maleimide) (cysteine pairing not given here) [rRAPGKLTCLASYCWLFWTGIA-PEG4-C(N-PEG5k maleimide)],> 1
21,RRAPGKLTKLASYEWLFWTGIA-OH [RRAPGKLT-Lys-LASY-Glu-WLFWTGIA-COOH],< 0.5
22,RRAPGKLT[Dap]LASYDWLFWTGIA-NH2 (N-terminus assumed; SMILES CC[C@H](C)[C@H](NC(=O)CNC(=O)[C@@H](NC(=O)[C@H](Cc1c[nH]c2ccccc12)NC(=O)[C@H](Cc1ccccc1)NC(=O)[C@H](CC(C)C)NC(=O)[C@H](Cc1c[nH]c2ccccc12)NC(=O)[C@H](CC(=O)O)NC(=O)[C@H](Cc1ccc(O)cc1)NC(=O)[C@H](CO)NC(=O)[C@H](C)NC(=O)[C@H](CC(C)C)NC(=O)[C@H](CN)NC(=O)[C@@H](NC(=O)[C@H](CC(C)C)NC(=O)[C@H](CCCCN)NC(=O)CNC(=O)[C@@H]1CCCN1C(=O)[C@H](C)NC(=O)[C@H](CCCNC(=N)N)NC(=O)[C@@H](N)CCCNC(=N)N)[C@@H](C)O)[C@@H](C)O)C(=O)N[C@@H](C)C(N)=O) [RRAPGKLT-Dap-LASY-Asp-WLFWTGIA-CONH2],> 10
